Experimental data taken from the supplement of paper PMC7877785.
± gives the uncertainty stated by the source.

Assay: self-splicing fitness, log relative to wild type (ln ratio); higher = more splicing; Tetrahymena group I intron in knt gene, E. coli kanamycin selection, DiMSum; sequences stand for … in CUCUCU…GGAGGGAAAAGUUAUCAGGCAUGCACCUGGUAGCUAGUCUUUAAACCAAUAGAUUGCAUCGGUUUAAAAGGCAAGACCGUCAAAUUGCGGGAAAGGGGUCAACAGCCGUUCAGUACCAAGUCUCAGGGGAAACUUUGAGAUGGCCUUGCAAAGGGUAUGGUAAUAAGCUGACGGACAUGGUCCUAACCACGCAGCCAAGUCCUAAGUCAACAGAUCUUCUGUUGAUAUGGAUGCAGUUCACAGACUAAAUGUCGGUCGGGGAAGAUGUAUUCUUCUCAUAAGAUAUAGUCGGACCUCUCCUUAAUGGGAGCUAGCGGAUGAAGUGAUGCAACACUGGAGCCGCUGGGAACUAAUUUGUAUGCGAAAGUAUAUUGAUUAGUUUUGGAGUACUCGUGGUCG
Summary of the method: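 The eight P1ex-region nucleotides of an intron in the knt kanamycin-resistance gene on pET-22b(+) were all randomised and the library put into E. coli BL21(DE3). Six replicate transformations were grown overnight at 37°C or 30°C on LB agar with or without 25 μg/mL kanamycin, together with 100 μg/mL carbenicillin, 50 μM IPTG and 0.2% rhamnose. Colonies were pooled and amplicon-sequenced on an Illumina HiSeq 2500. Fitness from DiMSum is the error-weighted combination of wild-type-normalised replicate fold changes, kanamycin over none.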

Row | Sequence | self-splicing fitness (ln) (30 °C) | self-splicing fitness (ln) (37 °C)
1 | AAAAAGCAAUAUUACGUACU | 0.142 ± 0.054 | 0.151 ± 0.077
2 | CGCAAGCAAUAUUACGCAAU | -2.94 ± 0.21 | -2.14 ± 0.26
3 | UAUCAGCAAUAUUACGCAAC | -2.71 ± 0.2 | -1.52 ± 0.17
4 | ACACAGCAAUAUUACGUCAG | -3.58 ± 0.14 | -1.67 ± 0.12
5 | UAGCAGCAAUAUUACGAAGA | -1.64 ± 0.14 | -1.29 ± 0.13
6 | GGCAAGCAAUAUUACGUCGC | -2.66 ± 0.14 | -1.38 ± 0.13
7 | GAAAAGCAAUAUUACGAAAG | -3.5 ± 0.15 | -1.9 ± 0.14
8 | GGUGAGCAAUAUUACGUUCA |  | -1.92 ± 0.47
9 | UCUUAGCAAUAUUACGUCAU | -1.86 ± 0.32 | 
10 | ACACAGCAAUAUUACGGAAG | -3.07 ± 0.14 | -1.12 ± 0.11
11 | ACCCAGCAAUAUUACGGAGA | -0.451 ± 0.048 | 0.122 ± 0.063
12 | UCUAAGCAAUAUUACGCACU | -3.04 ± 0.24 | -1.52 ± 0.17
13 | GGACAGCAAUAUUACGGGUC | -3.54 ± 0.23 | -2.56 ± 0.26
14 | ACUGAGCAAUAUUACGGAGU | -2.8 ± 0.41 | -1.78 ± 0.33
15 | CCUCAGCAAUAUUACGCAUA | -2.47 ± 0.17 | -2.19 ± 0.17
16 | UUCUAGCAAUAUUACGUUGC | -4.72 ± 0.39 | -2.64 ± 0.22
17 | AUUGAGCAAUAUUACGAACA | -3.6 ± 0.32 | -2.75 ± 0.25
18 | GGGUAGCAAUAUUACGCCAG |  | -2.81 ± 0.47
19 | CGUUAGCAAUAUUACGUCGA | -2.71 ± 0.19 | -1.16 ± 0.2
20 | UCGUAGCAAUAUUACGGUCG | -1.69 ± 0.12 | 0.265 ± 0.13
21 | AUCAAGCAAUAUUACGGAUA | -2.42 ± 0.16 | -1.83 ± 0.15
22 | AGCUAGCAAUAUUACGAGGA | -3.9 ± 0.35 | -2.42 ± 0.42
23 | UUACAGCAAUAUUACGGCUG | -2.21 ± 0.17 | -1.42 ± 0.2
24 | UGAUAGCAAUAUUACGGUCC | -0.857 ± 0.1 | 0.318 ± 0.14
25 | AUCUAGCAAUAUUACGCACG | -1.37 ± 0.15 | -0.353 ± 0.14

Row | Sequence | self-splicing fitness (ln) (30 °C) | self-splicing fitness (ln) (37 °C)
26 | CUUCAGCAAUAUUACGUGUC | -3.03 ± 0.13 | -2.3 ± 0.12
27 | CGUGAGCAAUAUUACGAUUU |  | -2.24 ± 0.29
28 | AGAAAGCAAUAUUACGGAUG | -2.93 ± 0.14 | -2.04 ± 0.14
29 | CGUCAGCAAUAUUACGGCCA | -0.937 ± 0.083 | 0.106 ± 0.097
30 | AGUCAGCAAUAUUACGUAGA | -2.08 ± 0.095 | -0.757 ± 0.098
31 | UCUUAGCAAUAUUACGCAUU | -4.23 ± 0.19 | -2.47 ± 0.16
32 | AUCCAGCAAUAUUACGCUAC | -4.03 ± 0.3 | -1.95 ± 0.24
33 | GAAGAGCAAUAUUACGGUAG | -3.51 ± 0.17 | -3.01 ± 0.22
34 | GCAAAGCAAUAUUACGAUAA | -1.48 ± 0.086 | -1.14 ± 0.1
35 | UGGCAGCAAUAUUACGAAAU | -3.14 ± 0.29 | -0.617 ± 0.19
36 | UCUUAGCAAUAUUACGAACG | -0.815 ± 0.15 | -1 ± 0.2
37 | UUGGAGCAAUAUUACGGUUU | -3.38 ± 0.31 | -2.9 ± 0.47
38 | GAUUAGCAAUAUUACGUCAU | -2.76 ± 0.24 | -1.79 ± 0.36
39 | GCGCAGCAAUAUUACGGGAC | -2.13 ± 0.097 | 0.393 ± 0.096
40 | CAACAGCAAUAUUACGUUUC | -3.28 ± 0.14 | -2.33 ± 0.16
41 | GAUCAGCAAUAUUACGGGUA | -0.0547 ± 0.089 | -0.665 ± 0.086
42 | AUCUAGCAAUAUUACGGCCC | 0.132 ± 0.2 | -0.0846 ± 0.33
43 | CAAUAGCAAUAUUACGCGGA | -3.59 ± 0.35 | -2.05 ± 0.16
44 | GGUCAGCAAUAUUACGAAAG | -1.78 ± 0.084 | -1.22 ± 0.12
45 | GUAUAGCAAUAUUACGUAGG | -3.15 ± 0.16 | -1.47 ± 0.14
46 | GAUCAGCAAUAUUACGUUAA | -1.23 ± 0.076 | -0.776 ± 0.084
47 | GCCAAGCAAUAUUACGGCCA | -1.42 ± 0.21 | -1.18 ± 0.25
48 | CAACAGCAAUAUUACGUGAC | -4.28 ± 0.22 | -2.23 ± 0.15
49 | CCUUAGCAAUAUUACGGGAU | -3.68 ± 0.29 | -2.68 ± 0.27
50 | CACAAGCAAUAUUACGUACU | -3.09 ± 0.12 | -0.878 ± 0.1

Row | Sequence | self-splicing fitness (ln) (30 °C) | self-splicing fitness (ln) (37 °C)
51 | CUAUAGCAAUAUUACGAAGG | -1.76 ± 0.13 | -1.72 ± 0.19
52 | CUGAAGCAAUAUUACGGCUA | -3.03 ± 0.25 | -1.22 ± 0.25
53 | GGUCAGCAAUAUUACGCUAC | -3.55 ± 0.28 | -2.17 ± 0.16
54 | GCAUAGCAAUAUUACGCUCG | -0.827 ± 0.11 | -0.165 ± 0.13
55 | UCGUAGCAAUAUUACGACGU | -3.04 ± 0.28 | -1.58 ± 0.17
56 | CAGAAGCAAUAUUACGCAAG | -2.45 ± 0.098 | -1.21 ± 0.092
57 | GCCUAGCAAUAUUACGUAGC | -0.323 ± 0.11 | -0.445 ± 0.11
58 | UGCGAGCAAUAUUACGAGGC | -2.74 ± 0.23 | -2 ± 0.23
59 | GUUUAGCAAUAUUACGACAA | -2.09 ± 0.21 | -0.807 ± 0.19
60 | GUAAAGCAAUAUUACGUGAC | -2.09 ± 0.076 | -0.885 ± 0.078
61 | UAUCAGCAAUAUUACGAAUU | -0.95 ± 0.076 | 0.113 ± 0.09
62 | CUCAAGCAAUAUUACGCUAC | -4.12 ± 0.29 | -2.23 ± 0.24
63 | CUGGAGCAAUAUUACGCAUA |  | -2.22 ± 0.37
64 | UGUCAGCAAUAUUACGCUGC | -3.54 ± 0.43 | -0.934 ± 0.25
65 | CGAGAGCAAUAUUACGCCGG | -2.74 ± 0.41 | -1.27 ± 0.45
66 | CCACAGCAAUAUUACGGACA | -3.12 ± 0.21 | -2.51 ± 0.18
67 | UUAGAGCAAUAUUACGUGAA | -2.16 ± 0.12 | -0.588 ± 0.13
68 | GUCAAGCAAUAUUACGAUCG | -3.39 ± 0.19 | -2.88 ± 0.23
69 | AUACAGCAAUAUUACGAGUA | -1.76 ± 0.16 | -0.461 ± 0.1
70 | AUCGAGCAAUAUUACGCGGA | -2.55 ± 0.17 | -0.974 ± 0.11
71 | UUGUAGCAAUAUUACGACGA | -1.08 ± 0.26 | -0.0034 ± 0.36
72 | CUCAAGCAAUAUUACGACGU | -2.18 ± 0.098 | -1.54 ± 0.11
73 | UAGCAGCAAUAUUACGCGGG | -2.24 ± 0.14 | -2.04 ± 0.2
74 | GGGAAGCAAUAUUACGCUAC | -2.26 ± 0.3 | -1.84 ± 0.46
75 | GGUGAGCAAUAUUACGAGAC | -2.82 ± 0.33 | -2.01 ± 0.46

Row | Sequence | self-splicing fitness (ln) (30 °C) | self-splicing fitness (ln) (37 °C)
76 | UGGAAGCAAUAUUACGUUUU | -3.63 ± 0.33 | -2.43 ± 0.27
77 | UCCCAGCAAUAUUACGGCGC | -1.67 ± 0.091 | -0.401 ± 0.14
78 | CGCUAGCAAUAUUACGUGUA | -3.54 ± 0.27 | -1.53 ± 0.13
79 | AGAAAGCAAUAUUACGGACC | -0.299 ± 0.3 | 0.21 ± 0.3
80 | CCGAAGCAAUAUUACGCAUA | -2.88 ± 0.27 | -3.64 ± 0.31
81 | AAUAAGCAAUAUUACGACCC | -0.924 ± 0.12 | 0.479 ± 0.17
82 | ACUUAGCAAUAUUACGAUUC | -2.3 ± 0.098 | -0.823 ± 0.1
83 | GGCUAGCAAUAUUACGGACG | 0.655 ± 0.093 | 0.211 ± 0.11
84 | UAGGAGCAAUAUUACGAUAU | -3.96 ± 0.33 | -2.46 ± 0.28
85 | GAGGAGCAAUAUUACGUUUC | -2.74 ± 0.42 | 
86 | GUAUAGCAAUAUUACGAAUC | -2.37 ± 0.22 | -0.29 ± 0.17
87 | CCUAAGCAAUAUUACGGACA | -1.7 ± 0.31 | -2.24 ± 0.31
88 | CUUGAGCAAUAUUACGAACC |  | -1.54 ± 0.44
89 | UGAGAGCAAUAUUACGCGAA | -4.25 ± 0.4 | -1.53 ± 0.28
90 | UCAUAGCAAUAUUACGCCGG | -1.25 ± 0.12 | -0.72 ± 0.12
91 | UCAUAGCAAUAUUACGUCAG | -2.96 ± 0.18 | -1.36 ± 0.15
92 | AGGCAGCAAUAUUACGUCUA | -0.469 ± 0.081 | 0.262 ± 0.091
93 | CUUGAGCAAUAUUACGCUGU | -2.28 ± 0.19 | -2.06 ± 0.32
94 | GCAGAGCAAUAUUACGAUGG | -1.98 ± 0.098 | -1.65 ± 0.12
95 | UUUUAGCAAUAUUACGGGCG | -0.356 ± 0.12 | -0.216 ± 0.19
96 | UAUAAGCAAUAUUACGGGGA | -1.81 ± 0.19 | -1.91 ± 0.23
97 | UAGCAGCAAUAUUACGGGCC | -1.45 ± 0.21 | -2.55 ± 0.36
